The record followed here is US11155793B2, “Phytase variants YeAPPA having improved gastric protein resistance and acid resistance, and increased catalytic efficiency” (priority 2017, dated 2021).

Series [1] concerns the target phytase YeAPPA variant YeAPPA-E230P (Glu230 into proline), SEQ ID NO.6 (Yersinia enterocolitica, UniProt D9D7K9, E230P). Nature of the series: Kinetic parameters of phytase variant YeAPPA-E230P on sodium phytate. The note with it: YeAPPA-E230P vs wild phytase, in words. The protocol: According to embodiment of the present invention, the phytase variant YeAPPA-E230P with amino acid sequence as set forth in SEQ ID NO.6 is obtained by mutation at the 230th site of glutamic acid into proline for phytase with amino acid as set forth in SEQ ID NO.1.
The modified gene encoding the phytase variants were inserted into expression vector pET-22b (+), and transformed into E coli.
The effect of pepsin on the activity of the purified mutant phytase was determined by detecting the remained activity after being treated in pH 2 for 2 hours with the different concentrations of pepsin in a mass ratio to phytase ranging from 1/1000 to 1/1. […] After developing, OD is measured at 700 nm to calculate the phytase activity. 1 unit of phytase activity is determined to be the enzyme amount releasing 1 μmol of phosphate for 1 minute. The absolute value of the measured phytase activity may be calculated based on the standard curve of inorganic phosphate in dilution.

For series [2], the target named is phytase YeAPPA variant YeAPPA-L162A (Leu162 into alanine), SEQ ID NO.4 (Yersinia enterocolitica, UniProt D9D7K9, L162A). As to the kind of experiment: Kinetic parameters of phytase variant YeAPPA-L162A on sodium phytate. The note with it: YeAPPA-L162A vs wild phytase, in words.
In series [3] the target is wild phytase YeAPPA, SEQ ID NO.1 (Yersinia enterocolitica, UniProt D9D7K9). Nature of the series: Kinetic parameters of wild phytase on sodium phytate (double reciprocal method). The note with it: optimal pH 5, 45° C. In kind it is biochemical.
The target in series [4] is phytase YeAPPA variant YeAPPA-E230G (Glu230 into glycine), SEQ ID NO.5 (Yersinia enterocolitica, UniProt D9D7K9, E230G). As to the kind of experiment: Kinetic parameters of phytase variant YeAPPA-E230G on sodium phytate. To be noted: YeAPPA-E230G vs wild phytase.
In series [5] the target is phytase YeAPPA variant YeAPPA-L162G (Leu162 into glycine), SEQ ID NO.3 (Yersinia enterocolitica, UniProt D9D7K9, L162G). Nature of the series: Kinetic parameters of phytase variant YeAPPA-L162G on sodium phytate. The note with it: YeAPPA-L162G vs wild phytase.
Series [6] addresses phytase YeAPPA variant YeAPPA-E230R (Glu230 into arginine), SEQ ID NO.7 (Yersinia enterocolitica, UniProt D9D7K9, E230R). Nature of the series: Kinetic parameters of phytase variant YeAPPA-E230R on sodium phytate. To be noted: YeAPPA-E230R vs wild phytase, in words.
The subject of series [7] is O=P(O)(O)O[C@H]1[C@H](OP(=O)(O)O)[C@@H](OP(=O)(O)O)[C@H](OP(=O)(O)O)[C@@H](OP(=O)(O)O)[C@H]1OP(=O)(O)O. Nature of the series: purified protein, by the assay type. To be noted: sodium phytate 0.0625-1.5 mmol/L.
[8] abbreviates: other: YeAPPA-E230G, optimal pH 5, 45° C.
Setting [9] is: other: YeAPPA-E230P, optimal pH 5, 50° C.
Where [10] appears, read: other: YeAPPA-E230R, optimal pH 4, 45° C.
The mark [11] stands for this setting: other: YeAPPA-L162A, optimal pH 5, 45° C.
Where [12] appears, read: other: YeAPPA-L162G, optimal pH 5, 45° C.

Regarding `O=P(O)(O)O[C@H]1[C@H](OP(=O)(O)O)[C@@H](OP(=O)(O)O)[C@H](OP(=O)(O)O)[C@@H](OP(=O)(O)O)[C@H]1OP(=O)(O)O` [sodium phytate], in series [1], the “reaction rate, conversion rate and catalytic efficiency compared with wild phytase” value (shortened to “reaction rate … compared with wild phytase”) is on record as “almost same as those of the wild phytase”. The “reaction rate … compared with wild phytase” value in series [2] is on record as “almost same as those of the wild phytase”. Further, in series [3], the Kcat/Km came out at 26 S^−1 mM^−1 and the Vmax is listed as 6.4 U mg^−1. For the same compound, the Kcat in series [3] (from theoretical molecular weight) is 4.9 S^−1. In series [4], the “Catalytic efficiency Kcat/km relative to wild phytase” value is recorded as 2.5 times, the “Conversion rate Kcat relative to wild phytase” value is listed as 2.5 times and the “Reaction rate Vmax relative to wild phytase” value is on record as 2.5 times. Further, the “Catalytic efficiency Kcat/km relative to wild phytase” value in series [5] is 1.7 times. Moreover, the “reaction rate … compared with wild phytase” value in series [6] is “almost same as those of the wild phytase”.
For “phytase YeAPPA variant YeAPPA-E230G (Glu230 into glycine), SEQ ID NO.5 (Yersinia enterocolitica; E230G)”, in series [7] (setting [8]), the Km was 190 µM, the Vmax was 16 µmol/min/mg, the kcat amounted to 12 s⁻¹ and the kcat/Km turned out to be 64000 M⁻¹ s⁻¹.
Regarding “phytase YeAPPA variant YeAPPA-E230P (Glu230 into proline), SEQ ID NO.6 (Yersinia enterocolitica; E230P)”, in series [7] (setting [9]), the Km amounted to 190 µM, the Vmax was found to be 6.7 µmol/min/mg, the kcat amounted to 5.1 s⁻¹ and the kcat/Km is 26000 M⁻¹ s⁻¹.
Turning to “phytase YeAPPA variant YeAPPA-E230R (Glu230 into arginine), SEQ ID NO.7 (Yersinia enterocolitica; E230R)”, in series [7] (setting [10]), the Michaelis-Menten constant (Km) is 180 µM, the Vmax is 6.3 µmol/min/mg, the catalytic constant (kcat) is 4.8 s⁻¹ and the kcat/Km was determined as 26000 M⁻¹ s⁻¹.
On to “phytase YeAPPA variant YeAPPA-L162A (Leu162 into alanine), SEQ ID NO.4 (Yersinia enterocolitica; L162A)”, for which, in series [7] (setting [11]), the Michaelis-Menten constant (Km) was found to be 190 µM, the Vmax stood at 6.5 µmol/min/mg, the kcat was determined as 5 s⁻¹ and the kcat/Km stood at 27000 M⁻¹ s⁻¹.
Consider “phytase YeAPPA variant YeAPPA-L162G (Leu162 into glycine), SEQ ID NO.3 (Yersinia enterocolitica; L162G)”, for which, in series [7] (setting [12]), the Km stood at 190 µM, the Vmax worked out at 11 µmol/min/mg, the kcat is 8.2 s⁻¹ and the kcat/Km came out at 43000 M⁻¹ s⁻¹.

As a reminder, the Km is the concentration of substrate that gives half-maximal velocity. One may read the kcat as the maximal rate divided by the concentration of active sites. The term kcat/Km denotes the second-order rate constant that governs catalysis at low substrate concentration.
